test: yeast display, Sf9 membrane polyspecificity reagent, FACS + sequencing; frameworks hold sequencing errors
Summary of the method: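 Nanobodies from a synthetic yeast display library (Saccharomyces cerevisiae BJ5465), induced 36–48 hours with galactose, were stained 1 hour at 4 °C with 10% biotinylated, detergent-solubilized Sf9 membrane reagent, enriched on streptavidin microbeads, then FACS-sorted. Anti-HA (expression) and streptavidin (reagent binding) fluorescence set low and high (top ~1%) gates. Polyreactivity labels come from the gate of origin. Genes were colony-PCR amplified, MiSeq 2 × 250 sequenced and filtered by CDR length.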

| Sequence | polyreactivity (PSR sort gate) |
| --- | --- |
| QVQLVESGGGLVQAGGSLRLSCAASGNIFGRYAMGWYRQAPGKERELVAAISWSGGSTFYADSVKGRFTISRDNAKNTVYLQMNSLKPEDTAVYYCAAEYWVYDSYWFDYDYWGQGTQVTVSS | high polyreactivity |
| QVQLVESGGGLVQAGGSLRLSCAASGITFSRYAMGWYRQAPGKERELVAAITARGGTTYYADSVKGRFTISRDNAKNTVYLQMNSLKPEDTAVYYCAAYKTYGSKYVFVDPGEYDYWGQGTQVTVSS | high polyreactivity |
| QVQLVESGGGLVQAGGSLRLSCAASGSTFYYNAMGWYRQAPGKERELVADISWRGGITYYADSVKGRFTISRDNAKNTVYLQMNSLKPEDTAVYYCAADIYPDWIYLLYGYWGQGTQVTVSS | low polyreactivity |
| QVQLEESGGCLVQAGGSLRLSCAASGSIFRIYAMGWYRQAPGKEREFVAAISSRGGRTYYAYSVKGRFTISRDNAKNTVYLQMNSLKPEDTAVYYCNARATRGSYYEYEYWGQGTQVTVSS | high polyreactivity |
| QVQLVESGGGLVQAGGSLRLSCAASGRTFISYAMGWYRQAPGKERELVAGISRGGSTYYADSVKGRFTISRDNAKNTVYLQMNSLKPEDTAVYYCAARRWISSHSYKYGYWGQGTQVTVSS | high polyreactivity |
| QVQLVESGVGIVQAGGSLRISCAASGTNFLFYAMGWYRQAPGKERELVATISRGGSTYYADSVKGRFTISRDNAKNTVYFQMKSLKPEDTAVYYCAARATRVTIAPRYGYWGQGTQVTVSS | low polyreactivity |
| QVQLVESGGGLVQAGGSLRLSCAASGRTIGYNAMGWYRQAPGKERELVAAITRSAGITYYADSVKGRFTISRDNAKNTVYLQLNSLKPEDTAVYYCNKRVVYRSSLFDYWGQGTQVTVSS | low polyreactivity |
| QVQLVESGGGLLQAGGSLRLSCAASGRTFYRYAMGWYRQAPGKERELVAAITWSGGSTYYADSVKGRFTTSRDNAKNTVYLQMNSLKPEDTAVYYCARRLYPYRPTAYDYWGQGTQVTVSS | low polyreactivity |
| QVQLVESGGGLVQAGGSLRLSCAASGRIFGRYAMGSYRQAPGKERELVAGINSGSTSYADSVRGRFTISRDNAKNTVYLQMNSLKPEDTAVYYCARGPRYRGGWDTFRGFDYWGQGTQVTVSS | low polyreactivity |
| QVQLVESGGGLVQAGGSLRLSCAASGRTFLYYAMGWYRQEPGKERELVAAITGRGGSTYNADSVKGLFTISRDNAQNTVYLKMNILKPEDTAVYYCAARDNWIRRDGYWGQGTQVTVSS | high polyreactivity |
| QVQLVESGGGLVQAGGSLRLICAASGFTFYRYAMGWYRQAPGKERELVASITRSGGSTSYADSVKGRFTISRDNAKNSVYLQMNRLKPEDTAVFYCAAVTTQYLFSVPYYYWGQGTQVTVSS | high polyreactivity |
| QVQLVESGGGLVQAGGSLRLICAPSGITFYPYSMGWSRQAPGKERELVAAISGGTNTHYADSVKGRFTISRDNAKNTDYLQMNSLKPVDTAVYYCAAGIDFRRTTSYSFWFDYWGQGTQVTVSS | high polyreactivity |
| QVQLVESGGGLVQAGGSLRLTCAASGFTFSPNAMGWYRQAPGKERELVAAIDWSGDRTYYADSVKGRFTISRDNAKNTVYLQMNSLKPEDTAVYYCNVVGRSPGDYSYYYSGQGTQVTVSS | low polyreactivity |
| QVKLVESGGGLVQAGGSLRLSCAASGNILGYNAMGWYRQEPGKERELVAAITQSGGSTYYADSVKGRFTISRDNAKYSVYLQMTSLKPEDTAVYDCAVDCGPFYDPFGYWGQGTQVTVSS | low polyreactivity |
| QVQLVESGGGLVQAGGSLRLSCAASGRIFIRNAMGWYRQAPGTERELVAAITSDGITYYADSVKGRFTISRDNATNTVYLQMNSLKPEDTAVYYCAKVGGWFSNLFIPRYREYNYWGQGTQVTVSP | low polyreactivity |
| QVQLVESGGGLVQAGGSLRLSCAASGRTFSFYAMGWYRQAPGKERELVAAIRSDGGTTYYADSVKGRFTISRDNAKNTVYLQMNSLKPEDTAVYYCNTQSFYFVSYSSSRYLRYYWGQGTQVTVSS | low polyreactivity |
| QVQLVESGGGLVQAGGSLRLSCAASGGIFFPNAMGWYRQAPGKERELVAAISWSAGSTYYADSVKGRFTISRDHAKNTVDLQMNSLKPEDTAVYYCPAAGSNYTVWYGYYYWGQGTQVTVSS | low polyreactivity |
| QVQLVESGGGLVQAGGSLRLSCAASGSIFARYAMGWYRQAPGKERELDAAISGRGGSTYYADSVKGRFTISRDNAKNTVYLQMNSLKPEDTAVYYCNAVGHTSIRRALDILDYWGQGTQVTVSS | high polyreactivity |
| QVQLVESGGGLVQAGGRLRLSCAASGSSSTPYTMGWYRPAPGKERELVAAISWIGDTTSYADSVKGRFTISRDNAKNTVYLQMNSLKPEDTAVYYCNAEHRGYDYWGHGTQVTVSS | low polyreactivity |
| QVQLVESGGGLVQAGGSLRLSCAASGNILSVYTLGWYRQAPGKERELVANITYSGDRTYADSVQVRFTISRDNAKTTVYLQMKILKPEDTAVYYCSKDGYPTGGPYWGGMDYWGQGTQVTVSS | low polyreactivity |
| QVQLVESGGGLVQAGGSLRLSCAASGRTFYVYTMGLYRQAPGKELELVAAISSSGGSTYYADSVKGRFTISRDNAKNTVYLQMNSLKPEDTAVYYCNSQWSLTRYGYWGQGTQVTVSS | high polyreactivity |
| QVQLVESGGGLVQAGGSLRLSCAASGRTFYLYTMGWYIQAPGKERELVAAISRGGRTYADSVKGRFTISRDNAKNTVYLQMNSLKPEDTAVYYCAAESVYHGWSYQHGKGDYWGQGTQVTVSS | low polyreactivity |
| QVQLVESGGGLVQAGGSLRLSCAASGRIFTSNTMGWNRQAPGKERELGAAITSSGGYMYYADSVKGRFTISRDNAKNTGYLQMNSLKPEDTAVYYCAADTIGYHYWYDYWGQGTQVTVSS | low polyreactivity |
| QVQLVESGGGLVQAGGSLRLSCAACGSTFHWNTMVWYRQAPGKERELVAAITYSGGRTYYADSVKGRFTISRDNAKNTVYLQMNSLKPEDTAVYYCAARYWRGSVTSYYYWGQGTQVTVSS | high polyreactivity |
| QVQLVESGGGLVQAGGSLRLSCAASGYTFVYYAMGLYRQAPGKERELVAAITSGGRTNYADSVKGRFTISRDNAKNTVYLQMKSLKPEDTAVYYCNVDGYYLFVRGYEYWGQGTQVTVSS | low polyreactivity |
| QVQLVESGGGLVQAGGSLRLSCAASGSTFWANAMGWYRQAPGKEREIVATISWSDGSTYYAASVKGRFTISRDNAKNTVYLQRNSLNPEDTAVYYCASDVVRFFTYKYDDWGQGTQVTVSS | low polyreactivity |
| QVQLVESGGGLVQAGGSLRLSCAASGSTFDPNAMGWYRQAPRKEREFVAAIRVSGDNTYYADSVKGRFTISRDNAKNTVYLLMNSLKPEDTAVYYCAATGTVLGSVDYWGQGTQVTVSS | low polyreactivity |
| QVQLVESGGGLVQAGASLRLSCAASGFNFDTNTIGWYRQAPGKERELVAVITRRGGRTYDADSVKGRFTISRDNAKNRVYLQMNSLKPVDTAVYYFNSVSYGQYGWGEGTQVTVSS | high polyreactivity |
| QVQLVESGGGLVQAGGSLRLSCAASGFIFEPYAMGWYRQAPGKERELVAAISSGGSTYADSVKGRFTISRDNAKNTVYLQMNSLKPEDTAVYYCAADSYYSVWGFYYWGQGTQVTVSS | low polyreactivity |
| QVQLVESGGGLVQAGGSLRLSCAASGSIFGLNAMGCYRQAPGKERELVAAISGGSTNYADSVKGRFTISRDNAKNTVYLQMNSLKPEDTAVYYCAARARRRYYYWGQGTQVTVSS | high polyreactivity |

From the nanobody polyreactivity screen of Harvey et al. (2022)
